Test results from US20260125478A1 (VIELA BIO, published 2026).

What was measured:
[1] = target: T1, human FcγRIIA on primary human cells (neutrophils; sorted CD14+ monocytes), allotype not stated (human, UniProt P12318 34-317); experiment: flow cytometry, fluorescently labelled antibody on human neutrophils, 30 min at 4 °C, without IVIG
T1 construct: whole, on cells; also called human FcγRIIA at the neutrophil surface; FcγRIIA-expressing neutrophils
T1 sequence (looked up): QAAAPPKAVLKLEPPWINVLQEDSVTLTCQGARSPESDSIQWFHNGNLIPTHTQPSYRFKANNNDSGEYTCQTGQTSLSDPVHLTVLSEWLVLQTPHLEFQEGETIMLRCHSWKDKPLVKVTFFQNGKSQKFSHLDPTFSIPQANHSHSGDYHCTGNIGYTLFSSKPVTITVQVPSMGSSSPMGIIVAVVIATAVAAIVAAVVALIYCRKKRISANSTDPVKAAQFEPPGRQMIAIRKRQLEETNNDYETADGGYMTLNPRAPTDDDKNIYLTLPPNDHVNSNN
Experimental: (§1) Human neutrophils were re-suspended in blocking buffer [phosphate-buffered saline (PBS) supplemented with 10% fetal bovine serum] and transferred to round-bottom 96-well culture plates (0.5×10^6 cells/well). […] After incubation, cells were washed with cold PBS and the mean fluorescence intensity (MFI) of cell-bound antibodies was assessed by flow cytometry using an LSRII (BD; Franklin Lakes, NJ). The EC₅₀ for binding was calculated using a non-linear fit equation in GraphPad Prism 6 software.

[2] = target: T2, recombinant human FcγRIIIA-158F allotype (ELISA coat, generated at MedImmune) (human, UniProt P08637 17-208, limits assumed); experiment: ELISA on plate-coated FcγRIIIA-158F (2 µg/ml), detection with goat anti-human Fc-HRP
T2 construct: also called FcγRIII-158F allotype; CD16A 158F
Experimental: (§2) Plates were washed five times with 200 μl of wash buffer (PBS containing 0.1% Tween 20), blocked with blocking buffer containing 5% milk in PBS for 1 hour at room temperature, and washed five additional times with wash buffer. Three-fold serial dilutions of the test antibody or control antibody (R347-Tm) were added to wells in duplicate. Plates were incubated for 2 hours at room temperature, and washed five times with wash buffer. Binding of the antibodies to the FcγRs was detected by adding 50 μl of goat anti-human Fc-HRP (Jackson ImmunoResearch Laboratories, PA) to the wells and incubating for 1 hour at room temperature, washing 10 times, and adding 50 μl TMB substrate (Pierce Biotechnology, MA). The color reaction was stopped with 50 μl 0.2M […] and the absorbance was measured using a spectrophotometer (Molecular Devices, CA) at […].

[3] = target: T1, human FcγRIIA on primary human cells …; experiment: flow cytometry, fluorescently labelled antibody on human neutrophils, 30 min at 4 °C, in the presence of 10 mg/mL IVIG as competitor
Experimental: as §1

[4] = target: T1, human FcγRIIA on primary human cells …; experiment: flow cytometry, fluorescently labelled antibody on human neutrophils, without IVIG
Experimental: as §1

[5] = target: T3, recombinant human FcγRIIIA-158V allotype (ELISA coat, generated at MedImmune) (human, UniProt P08637 17-208, limits assumed); experiment: ELISA on plate-coated FcγRIIIA-158V (2 µg/ml), detection with goat anti-human Fc-HRP
T3 construct: also called FcγRIII-158V allotype; CD16A 158V
Experimental: as §2

[6] = target: T4, recombinant FcγRIIA-131H/H allotype (ELISA coat, generated at MedImmune) (human, UniProt P12318 34-217, limits assumed); experiment: ELISA on plate-coated FcγRIIA-131H/H (2 µg/ml), detection with goat anti-human Fc-HRP
T4 construct: also called human FcγRIIA; CD32A
T4 sequence (looked up): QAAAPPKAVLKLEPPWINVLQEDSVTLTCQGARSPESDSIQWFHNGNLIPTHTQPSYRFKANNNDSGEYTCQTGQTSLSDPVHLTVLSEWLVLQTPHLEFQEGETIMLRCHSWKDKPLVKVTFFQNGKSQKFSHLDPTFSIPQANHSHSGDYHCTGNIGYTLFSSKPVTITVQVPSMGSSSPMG
Experimental: as §2

[7] = target: T5, cynomolgus CD32A version 3, 6xHis tagged (cynomolgus monkey); experiment: Biacore; IgG1-TM captured on a Protein G chip, CD32A as analyte, 1:1 Langmuir fit, average of two experiments
T5 construct: also called Cyno CD32A; cyno CD32A (version 3)
T5 chain: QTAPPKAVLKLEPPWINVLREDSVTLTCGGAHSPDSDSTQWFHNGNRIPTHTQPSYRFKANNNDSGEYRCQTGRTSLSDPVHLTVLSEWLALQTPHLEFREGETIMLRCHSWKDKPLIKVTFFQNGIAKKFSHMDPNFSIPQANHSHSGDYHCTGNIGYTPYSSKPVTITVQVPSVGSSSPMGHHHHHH

[8] = target: T6, Human CD32A 131H extracellular domain, 6xHis_Flag tagged (human, UniProt P12318 34-217); experiment: as above
T6 construct: Used unlabelled as the analyte in Biacore; also called Hu CD32A_131His
T6 sequence: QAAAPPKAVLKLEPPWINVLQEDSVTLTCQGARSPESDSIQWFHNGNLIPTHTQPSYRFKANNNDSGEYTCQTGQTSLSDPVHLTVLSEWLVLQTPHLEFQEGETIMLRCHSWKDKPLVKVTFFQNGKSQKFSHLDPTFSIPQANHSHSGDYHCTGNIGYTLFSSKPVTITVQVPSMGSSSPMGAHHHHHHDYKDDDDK

[9] = target: T7, recombinant human FcγRI (ELISA coat, generated at MedImmune) (human, UniProt P12314 16-292, limits assumed); experiment: ELISA on plate-coated FcγRI (2 µg/ml), detection with goat anti-human Fc-HRP
T7 construct: also called CD64
Experimental: as §2

T7 sequence (P12314 16-292 limits assumed): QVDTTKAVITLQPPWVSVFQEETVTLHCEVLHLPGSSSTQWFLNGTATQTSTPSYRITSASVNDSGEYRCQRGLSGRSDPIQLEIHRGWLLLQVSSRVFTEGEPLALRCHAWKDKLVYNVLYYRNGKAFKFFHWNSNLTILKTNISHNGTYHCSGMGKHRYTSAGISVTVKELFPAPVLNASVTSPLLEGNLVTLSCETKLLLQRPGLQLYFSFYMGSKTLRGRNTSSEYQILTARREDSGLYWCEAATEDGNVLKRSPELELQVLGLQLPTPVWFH
T2 sequence (P08637 17-208 limits assumed): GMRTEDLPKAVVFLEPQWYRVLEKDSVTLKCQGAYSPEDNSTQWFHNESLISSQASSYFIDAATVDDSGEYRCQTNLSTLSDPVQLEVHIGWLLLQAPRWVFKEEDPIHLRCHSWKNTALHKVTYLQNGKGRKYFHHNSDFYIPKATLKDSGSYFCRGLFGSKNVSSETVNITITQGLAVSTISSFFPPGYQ
T3 sequence (P08637 17-208 F176V limits assumed): as the sequence (P08637 17-208 limits assumed) above, with F160V counted along it

- EC50 [1]: 0.0293 nM
- binding result [2]: no binding (tested: about 15000 ng/ml)
- EC50 [3]: 3.35 nM
- EC50 [4]: 0.03 nM
- binding result [5]: no binding (tested: about 15000 ng/ml)
- EC50 (read off the curve) [6]: ~5 ng/mL
- Kd [7]: 31.3 nM
- koff [7]: 0.0904 s⁻¹
- kon [7]: 2.88e+06 M⁻¹ s⁻¹
- Kd [8]: 0.13 nM
- koff [8]: 0.000337 s⁻¹
- kon [8]: 2.6e+06 M⁻¹ s⁻¹
- binding result [9]: no binding (tested: about 15000 ng/ml)
B1: 32LO0352 (MEDI9600) (antibody, human IgG1, V domains shown)
VH: QVQLVQSGAEVKKPGASVKVSCKASGYTFTNYGMNWVRQAPGQRLEWMGWLNTYTGESWYPDDFKGRVTITRDTSASTAYMELSSLRSEDTAVYYCARGDYGYDDPLDYWGQGTLVTVSS
VL: DIVMTQSPLSLPVTPGEPASISCRSSKSLLHTNQNTYLHWFLQKPGQSPQLLIYRMSVLASGVPDRFSGSGSGTDFTLKISRVEAEDVGVYYCMQHLEYPLTFGQGTKLEIK
notes: Fluorescently labelled in the neutrophil flow cytometry assay and Alexa 647 labelled for confocal microscopy; also called clone 32LO0352; CD32LO0352
